Consider three molecules from patent publication US20230114801A1 (SYSTIMMUNE, published 2023).

The Kd is the constant that tells how readily two partners part at equilibrium. Read a high Kd as a looser complex.

For one assay, the target named is T1, CD19 (UniProt P15391 20-291, limits assumed).
T1 sequence (looked up): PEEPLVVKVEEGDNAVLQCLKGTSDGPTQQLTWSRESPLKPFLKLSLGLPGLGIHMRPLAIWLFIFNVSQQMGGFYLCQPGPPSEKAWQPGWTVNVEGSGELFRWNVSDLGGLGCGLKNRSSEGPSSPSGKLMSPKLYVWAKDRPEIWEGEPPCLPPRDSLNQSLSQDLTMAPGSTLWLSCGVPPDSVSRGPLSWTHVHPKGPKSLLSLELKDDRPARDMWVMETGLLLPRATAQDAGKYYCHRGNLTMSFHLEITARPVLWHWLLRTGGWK
Nature of the assay: BLI (Octet), binder on AHC sensor; antigen conditions not stated. (BLI is a label-free optical method that tracks binding on a fibre tip over time.)

In the next assay the target is T2, human 4-1BB (human, UniProt Q07011 24-186, limits assumed).
T2 construct: Soluble antigen in Octet; construct not described
Described as above.

A further assay addresses T3, human PD-L1 (human, UniProt Q9NZQ7 19-238).
T3 construct: Soluble antigen in Octet; bought; also called human PD-L1 (Acro PD1-H5229)
The description is as above.

Another assay addresses T4, human CD3 (human, UniProt P07766 23-126; P04234 22-105).
T4 construct: also called His-tagged human CD3; human CD3 (Acro CDD-H52W1)
Nature of the assay: BLI (Octet), binder on AHC sensor, His-tagged human CD3 (series from 200 nM or single 100 nM), 1:1 fit.

B1: SI-68P13 (other)
chain 1: EIVLTQSPSTLSVSPGERATFSCRASQSIGTNIHWYQQKPGKPPRLLIKYASESISGIPDRFSGSGSGTEFTLTISSVQSEDFAVYYCQQNNNWPTTFGPGTKLTVLGGGGSGGGGSGGGGSGGGGSQVQLQQSGPGLVKPSETLSITCTVSGFSLTNYGVHWIRQAPGKGLEWLGVIWSGGNTDYNTPFTSRFTITKDNSKNQVYFKLRSVRADDTAIYYCARALTYYDYEFAYWGQGTLVTVSSGGGGSGGGGSEVQLVESGGGLVQPGGSLRLSCAASGFTISTNAMSWVRQAPGKGLEWIGVITGRDITYYASWAKGRFTISRDNSKNTLYLQMNSLRAEDTAVYYCARDGGSSAITSNNIWGQGTLVTVSSASTKGPSVFPLAPSSKSTSGGTAALGCLVKDYFPEPVTVSWNSGALTSGVHTFPAVLQSSGLYSLSSVVTVPSSSLGTQTYICNVNHKPSNTKVDKRVEPKSCDKTHTCPPCPAPEAAGGPSVFLFPPKPKDTLMISRTPEVTCVVVDVSHEDPEVKFNWYVDGVEVHNAKTKPREEQYNSTYRVVSVLTVLHQDWLNGKEYKCAVSNKALPAPIEKTISKAKGQPREPQVYTLPPSRDELTKNQVSLSCAVKGFYPSDIAVEWESNGQPENNYKTTPPVLDSDGSFFLVSKLTVDKSRWQQGNVFSCSVMHEALHNHYTQKSLSLSPGGGGGSGGGGSDVVMTQSPSSVSASVGDRVTITCQASQNIRTYLSWYQQKPGKAPKLLIYAAANLASGVPSRFSGSGSGTDFTLTISDLEPGDAATYYCQSTYLGTDYVGGAFGGGTKLTVLGGGGSGGGGSGGGGSGGGGSEVQLVESGGGLVQPGGSLRLSCTASGFTISSYHMQWVRQAPGKGLEYIGTISSGGNVYYASSARGRFTISRPSSKNTVDLQMNSLRAEDTAVYYCARDSGYSDPMWGQGTLVTVSS
chain 2: ENVLTQSPASLSASPGERVTITCSASSSVSYMHWYQQKPGQAPKLWIYDTSKLASGVPSRFSGSGSGNDHTLTISSMEPEDFATYYCFQGSVYPFTFGQGTKVTVLGGGGSGGGGSGGGGSGGGGSQVTLKESGPGLVQPGQTLSLTCAFSGFSLSTSGMGVGWIRQPPGKGLEWLAHIWWDDDKRYNPALKSRLTISKDTSKNQVYLQMNSLDAEDTAVYYCARMELWSYYFDYWGQGTLVTVSSGGGGSGGGGSDVVMTQSPSTLSASVGDRVTINCQASESISSWLAWYQQKPGKAPKLLIYEASKLASGVPSRFSGSGSGTEFTLTISSLQPDDFATYYCQGYFYFISRTYVNSFGGGTKVEIKRTVAAPSVFIFPPSDEQLKSGTASVVCLLNNFYPREAKVQWKVDNALQSGNSQESVTEQDSKDSTYSLSSTLTLSKADYEKHKVYACEVTHQGLSSPVTKSFNRGECGGDKTHTCPPCPAPEAAGGPSVFLFPPKPKDTLMISRTPEVTCVVVDVSHEDPEVKFNWYVDGVEVHNAKTKPREEQYNSTYRVVSVLTVLHQDWLNGKEYKCAVSNKALPAPIEKTISKAKGQPREPQVYTLPPSRDELTKNQVSLWCLVKGFYPSDIAVEWESNGQPENNYKTTPPVLDSDGSFFLYSKLTVDKSRWQQGNVFSCSVMHEALHNRFTQKSLSLSPGGGGGSGGGGSDIQMTQSPSTLSASVGDRVTITCQASQSISSHLNWYQQKPGKAPKLLIYKASTLASGVPSRFSGSGSGTEFTLTISSLQPDDFATYYCQQGYSWGNVDNVFGGGTKVTVLGGGGSGGGGSGGGGSGGGGSEVQLLESGGGLVQPGGSLSLSCAASGFSFSSGYDMCWVRQAPGKGLEWIACIAAGSAGITYDANWAKGRFTISRDNSKNTLYLQMNSLRAEDTAVYYCARSAFSFDYAMDLWGQGTLVTVSS
notes: penta-miniGNC; D1 αEGFR, D2 αCD19, D3 αCD3 (Fab), D4 α4-1BB, D5 αPD-L1
Take B1: the Kd with CD19 is 4.33 nM; with human 4-1BB, 14.8 nM; with human PD-L1 it was 1.04 nM; with human CD3 it was 25.9 nM.

B2: SI-68P15 (other)
chain 1: EIVMTQSPSTLSASVGDRVIITCQASESISSWLAWYQQKPGKAPKLLIYEASKLASGVPSRFSGSGSGAEFTLTISSLQPDDFATYYCQGYFYFISRTYVNSFGQGTKLTVLGGGGSGGGGSGGGGSGGGGSEVQLVESGGGLVQPGGSLRLSCAASGFTISTNAMSWVRQAPGKGLEWVGVITGRDITYYASWAKGRFTISRDTSKNTVYLQMNSLRAEDTAVYYCARDGGSSAITSNNIWGQGTLVTVSSGGGGSGGGGSQVQLQQSGPGLVKPSETLSITCTVSGFSLTNYGVHWIRQAPGKGLEWLGVIWSGGNTDYNTPFTSRFTITKDNSKNQVYFKLRSVRADDTAIYYCARALTYYDYEFAYWGQGTLVTVSSASTKGPSVFPLAPSSKSTSGGTAALGCLVKDYFPEPVTVSWNSGALTSGVHTFPAVLQSSGLYSLSSVVTVPSSSLGTQTYICNVNHKPSNTKVDKRVEPKSCDKTHTCPPCPAPEAAGGPSVFLFPPKPKDTLMISRTPEVTCVVVDVSHEDPEVKFNWYVDGVEVHNAKTKPREEQYNSTYRVVSVLTVLHQDWLNGKEYKCAVSNKALPAPIEKTISKAKGQPREPQVYTLPPSRDELTKNQVSLSCAVKGFYPSDIAVEWESNGQPENNYKTTPPVLDSDGSFFLVSKLTVDKSRWQQGNVFSCSVMHEALHNHYTQKSLSLSPGGGGGSGGGGSDVVMTQSPSSVSASVGDRVTITCQASQNIRTYLSWYQQKPGKAPKLLIYAAANLASGVPSRFSGSGSGTDFTLTISDLEPGDAATYYCQSTYLGTDYVGGAFGGGTKLTVLGGGGSGGGGSGGGGSGGGGSEVQLVESGGGLVQPGGSLRLSCTASGFTISSYHMQWVRQAPGKGLEYIGTISSGGNVYYASSARGRFTISRPSSKNTVDLQMNSLRAEDTAVYYCARDSGYSDPMWGQGTLVTVSS
chain 2: ENVLTQSPASLSASPGERVTITCSASSSVSYMHWYQQKPGQAPKLWIYDTSKLASGVPSRFSGSGSGNDHTLTISSMEPEDFATYYCFQGSVYPFTFGQGTKVTVLGGGGSGGGGSGGGGSGGGGSQVTLKESGPGLVQPGQTLSLTCAFSGFSLSTSGMGVGWIRQPPGKGLEWLAHIWWDDDKRYNPALKSRLTISKDTSKNQVYLQMNSLDAEDTAVYYCARMELWSYYFDYWGQGTLVTVSSGGGGSGGGGSEIVLTQSPSTLSVSPGERATFSCRASQSIGTNIHWYQQKPGKPPRLLIKYASESISGIPDRFSGSGSGTEFTLTISSVQSEDFAVYYCQQNNNWPTTFGPGTKLTVLRTVAAPSVFIFPPSDEQLKSGTASVVCLLNNFYPREAKVQWKVDNALQSGNSQESVTEQDSKDSTYSLSSTLTLSKADYEKHKVYACEVTHQGLSSPVTKSFNRGECGGDKTHTCPPCPAPEAAGGPSVFLFPPKPKDTLMISRTPEVTCVVVDVSHEDPEVKFNWYVDGVEVHNAKTKPREEQYNSTYRVVSVLTVLHQDWLNGKEYKCAVSNKALPAPIEKTISKAKGQPREPQVYTLPPSRDELTKNQVSLWCLVKGFYPSDIAVEWESNGQPENNYKTTPPVLDSDGSFFLYSKLTVDKSRWQQGNVFSCSVMHEALHNRFTQKSLSLSPGGGGGSGGGGSDIQMTQSPSTLSASVGDRVTITCQASQSISSHLNWYQQKPGKAPKLLIYKASTLASGVPSRFSGSGSGTEFTLTISSLQPDDFATYYCQQGYSWGNVDNVFGGGTKVTVLGGGGSGGGGSGGGGSGGGGSEVQLLESGGGLVQPGGSLSLSCAASGFSFSSGYDMCWVRQAPGKGLEWIACIAAGSAGITYDANWAKGRFTISRDNSKNTLYLQMNSLRAEDTAVYYCARSAFSFDYAMDLWGQGTLVTVSS
notes: penta-miniGNC; D1 αCD3** (humanized framework 1), D2 αCD19, D3 αEGFR (Fab), D4 α4-1BB, D5 αPD-L1
Turning to B2, the figures for the Kd with human 4-1BB, with human PD-L1 and in the assay with human CD3 were 17.1 nM, 0.4 nM and 22.4 nM, respectively.

B3: SI-68P16 (other)
chain 1: DPVLTQSPSSLSASVGDRVTISCQSSQSVAKNNNLAWFQQKPGQAPKLLIYSASTLAAGVPSRFSGSGSGTDFTLTISSVQPEDFATYYCSARDSGNIQSFGGGTKVEIKGGGGSGGGGSGGGGSGGGGSQQLVESGGGLVKPGGSLRLSCAASGIDLSSNAIGWVRQAPGKGLEWVGVIFGSGNTYYASWAKGRFTISRSKNTVYLQMNSLRAEDTAVYYCARGGYSSDIWGQGTLVTVSSGGGGSGGGGSQVQLQQSGPGLVKPSETLSITCTVSGFSLTNYGVHWIRQAPGKGLEWLGVIWSGGNTDYNTPFTSRFTITKDNSKNQVYFKLRSVRADDTAIYYCARALTYYDYEFAYWGQGTLVTVSSASTKGPSVFPLAPSSKSTSGGTAALGCLVKDYFPEPVTVSWNSGALTSGVHTFPAVLQSSGLYSLSSVVTVPSSSLGTQTYICNVNHKPSNTKVDKRVEPKSCDKTHTCPPCPAPEAAGGPSVFLFPPKPKDTLMISRTPEVTCVVVDVSHEDPEVKFNWYVDGVEVHNAKTKPREEQYNSTYRVVSVLTVLHQDWLNGKEYKCAVSNKALPAPIEKTISKAKGQPREPQVYTLPPSRDELTKNQVSLSCAVKGFYPSDIAVEWESNGQPENNYKTTPPVLDSDGSFFLVSKLTVDKSRWQQGNVFSCSVMHEALHNHYTQKSLSLSPGGGGGSGGGGSDVVMTQSPSSVSASVGDRVTITCQASQNIRTYLSWYQQKPGKAPKLLIYAAANLASGVPSRFSGSGSGTDFTLTISDLEPGDAATYYCQSTYLGTDYVGGAFGGGTKLTVLGGGGSGGGGSGGGGSGGGGSEVQLVESGGGLVQPGGSLRLSCTASGFTISSYHMQWVRQAPGKGLEYIGTISSGGNVYYASSARGRFTISRPSSKNTVDLQMNSLRAEDTAVYYCARDSGYSDPMWGQGTLVTVSS
chain 2: B2 chain 2
notes: penta-miniGNC; D1 αCD3***** (humanized framework 4), D2 αCD19, D3 αEGFR (Fab), D4 α4-1BB, D5 αPD-L1
On to B3, for which the Kd with CD19 came to 2.55 nM; in the assay with human 4-1BB, 23.3 nM; with human PD-L1, 0.5 nM.
